Reference: patent publication US11339383B2, “G proteins” (HEPTARES THERAPEUTICS LIMITED, priority 2016, dated 2022)

Legend:
β1AR-84 [1] = target: T1, β1AR-84 (Meleagris gallopavo, UniProt P07700, C116L/C358A/D322K/DEL244-271/F327A/F338M/M44C/M90V/V103C); experiment: Saturation binding assay, ^3H-DHA binding to β1AR-84; parameters: species or system turkey; conditions: insect cell membranes, 20° C.
T1 construct: His6 (C); made in house; host or cells: Trichoplusia ni (High Five) insect cells, BaculoGold baculovirus
Experimental: FIG. 2. Saturation binding data for β1AR constructs. […] Data represent mean±SEM of three independent experiments. Curves shown are from a representative experiment performed in duplicate.
Insect cells expressing β1AR were resuspended in 1 ml of assay buffer (20 mM HEPES, pH 7.5, 100 mM NaCl), supplemented with Complete EDTA-free protease inhibitors (Roche). Cells were broken by 10 passages through a bent 26 G needle. Cell debris was removed by centrifugation (3000 g for 5 mins at 4° C.). The supernatant was diluted and 2×0.96 ml aliquots taken for each sample. Alprenolol (120 μl) was added to the negative sample (1 mM final concentration) and assay buffer (120 μl) was added to the positive sample. Samples were aliquoted (12×108 μl) into a PCR plate. [^3H]-dihydroalprenolol (12 μl) was added to each well (to give final concentrations in the range: 2.5 nM-2.56 μM). Samples were mixed and incubated at 20° C. for 2 h. Samples (2×50 μl duplicates) were vacuum filtered through 96-well glass fibre filter plates (Merck Millipore), pre-soaked with PEI (0.1%). Each well was washed with assay buffer (3×200 μl). Filters were dried, punched into scintillation vials and 4 ml Ultima Gold scintillant (Perkin Elmer) was added. Radioactivity was quantified by scintillation counting (1 min per sample) using a Tri-Carb counter (Perkin Elmer). Data for negative samples were subtracted from positive samples. […]

β1AR-84 [2] = target: T1, β1AR-84; assay type: binding, turkey; conditions: membranes
NTSR1 = target: T2, NTSR1 (Rattus norvegicus, UniProt P20789); experiment: Thermostability assay of ^3H-NTS-bound NTSR1; assay type: biochemical; conditions: DDM-solubilized
T2 construct: the wild-type rat NTSR1 (residues 43-396) and a C-terminal His10 tag; hemagglutinin signal peptide (N); Flag (N); His10 (C); made in house; host or cells: Trichoplusia ni insect cells, baculovirus (modified pFastBac1)
Experimental: The samples were placed on a rotating mixer at 4° C. for 1 hour. Cell debris and non-solubilized material were removed by ultracentrifugation (152,800×g, 4° C., 30 min), and the supernatant containing detergent-solubilized NTSR1 was used to test for thermal stability in the presence of NTS and mini-G proteins. For thermal denaturation curves, the supernatants were diluted 6.67-fold into assay buffer (50 mM TrisHCl pH 7.4, 100 mM NaCl, 1 mM MgCl2) containing 22.5 μM mini-G protein and 10 nM ^3H-NTS and incubated for 1 hour on ice. After addition of apyrase (0.25 units/ml, NEB), the sample was placed on ice for an additional 30 min. Samples (120 μl aliquots) were exposed to different temperatures between 0° C. and 60° C. for 30 min and placed on ice. […] Control reactions on ice were recorded at the start and at the end of each denaturation experiment. The percentage of activity remaining after heat exposure was determined with respect to the unheated control. Data were analyzed by nonlinear regression using a Boltzmann sigmoidal equation in the Prism software (GraphPad).

A2AR = A2AR (Homo sapiens, UniProt P29274, N154A); experiment: Thermostability assay of ^3H-NECA-bound A2AR
Experimental: The samples were incubated at room temperature for 1 h, then chilled on ice for 30 min. DDM, DM or OG were added to a final concentration of 0.1%, 0.13% or 0.8%, respectively, and samples were incubated on ice for 1 h. Cell debris was removed by centrifugation for 5 min at 20,000×g and the supernatant was aliquoted into PCR strips. Samples were heated to the desired temperature for exactly 30 min, then quenched on ice for 30 min. Samples (50 μl) were loaded onto gel filtration resin packed into a 96-well filter plate (Millipore), which was centrifuged to separate receptor-bound from free radioligand. […] Data were analyzed by nonlinear regression using GraphPad Prism software. Apparent Tm values were derived from sigmoidal dose-response analysis. Results represent the mean±SEM of two independent experiments, performed in duplicate.
Samples were heated to the desired temperature for exactly 30 min, then quenched on ice for 30 min. Samples (50 μl) were loaded onto gel-filtration resin (Toyopearl HW-40F) packed into a 96-well filter plate (Millipore), which was centrifuged to separate receptor-bound from free radioligand [28]. […] Data were analysed by nonlinear regression using GraphPad Prism software. Apparent Tm values were derived from sigmoidal dose-response analysis performed by non-liner regression. Results represent the mean±SEM of two independent experiments, performed in duplicate.

[3] = Stability of mini-G proteins in detergent by native DSF; assay type: physicochemical; conditions: 2 mg/ml, onset of scattering
Experimental: (§1) For constructs see FIGS. 29 and 35-37. Expression, purification and stability measurements by differential scanning fluorimetry (DSF) of the mini-G proteins as well as the non-lipidated Gβ1γ2 dimer, were performed following the protocols described in Example 1. The stability of mini-G proteins was also determined in detergent using native DSF (NanoTemper Prometheus). Mini-G proteins (2 mg/ml) in 50 mM HEPES pH 7.5 (KOH), 20 mM MgCl2, 50 mM NaCl, 1 μM GDP were mixed with either no detergent (control), 0.1% LMNG or 0.1% DDM. Samples were incubated on ice (minimum 30 min) prior to heating on the Prometheus (20% excitation, 15° C.-85° C., rate of 2.0° C./min) and the onset of scattering determined.

[4] = Thermostability of GDP-bound mini G proteins by differential scanning fluorimetry (DSF); assay type: physicochemical; conditions: mini-G protein alone, GDP-bound
Experimental: SYPRO-orange (15 μl) was added from a 20× stock solution to give a final concentration of 2×. Samples were mixed and 2×50 μl aliquots (duplicates) were transferred to 0.2 ml PCR tubes (Qiagen). Thermostability measurements were performed using a Rotor-Gene Q (Qiagen). Samples were equilibrated for 90 s at 25° C. before ramping from 25 to 99° C. at 4 s/° C. The melting temperature (Tm), corresponding to the inflection point of the curve, was derived from analysis using the Rotor-Gene Q software. Tm values were calculated as the mean±SEM from three independent experiments.
as §1

A2AR, sequence (P29274 1-317 N154A): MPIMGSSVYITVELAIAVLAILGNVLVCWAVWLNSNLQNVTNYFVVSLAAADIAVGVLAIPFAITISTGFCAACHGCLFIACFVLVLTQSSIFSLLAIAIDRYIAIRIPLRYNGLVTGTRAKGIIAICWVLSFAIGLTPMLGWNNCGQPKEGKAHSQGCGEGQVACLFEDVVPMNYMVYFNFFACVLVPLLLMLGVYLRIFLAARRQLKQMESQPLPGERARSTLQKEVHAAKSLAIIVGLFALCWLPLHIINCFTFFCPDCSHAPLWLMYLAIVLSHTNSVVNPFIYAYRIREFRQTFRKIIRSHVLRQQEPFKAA
T1 sequence (P07700 other isoform, or with tags, fused parts or gaps M44C/M90V/V103C/C116L/DEL244-271/D322K/F327A/F338M/C358A): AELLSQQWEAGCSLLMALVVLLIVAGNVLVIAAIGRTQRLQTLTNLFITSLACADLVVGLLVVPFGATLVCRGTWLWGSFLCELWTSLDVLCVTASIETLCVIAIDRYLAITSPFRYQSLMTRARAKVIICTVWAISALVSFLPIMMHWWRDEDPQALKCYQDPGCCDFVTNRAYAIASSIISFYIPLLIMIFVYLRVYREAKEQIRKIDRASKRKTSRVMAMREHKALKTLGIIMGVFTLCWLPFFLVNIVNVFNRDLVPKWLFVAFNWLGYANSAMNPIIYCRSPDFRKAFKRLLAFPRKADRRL
T2 sequence (P20789 43-396): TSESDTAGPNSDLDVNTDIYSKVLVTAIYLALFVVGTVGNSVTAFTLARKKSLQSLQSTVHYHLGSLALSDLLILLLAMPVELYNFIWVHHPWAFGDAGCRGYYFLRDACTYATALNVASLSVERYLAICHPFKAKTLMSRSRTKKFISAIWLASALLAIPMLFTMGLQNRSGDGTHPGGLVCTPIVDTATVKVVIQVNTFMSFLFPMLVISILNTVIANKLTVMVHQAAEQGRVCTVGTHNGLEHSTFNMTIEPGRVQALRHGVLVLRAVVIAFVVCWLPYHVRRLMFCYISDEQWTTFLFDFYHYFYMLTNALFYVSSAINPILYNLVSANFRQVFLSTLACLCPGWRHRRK

Molecule	coupling of mini-Gs/q chimera to A2AR (thermostability assay and SEC) (A2AR)	Stability in detergent measured by native DSF, 0.1% DDM [3]	Stability in detergent measured by native DSF, 0.1% LMNG [3]	Stability in detergent measured by native DSF, No detergent [3]	Stability measured by DSF [4]	further results
CCCc1ccccc1OCC(O)CNC(C)C (centres unmarked) [^3H-DHA, ^3H-dihydroalprenolol]						Kd (β1AR-84 [1]): 20 ± 3 nM
Gs: non-lipidated Gs (Gαsβ1γ2) heterotrimer [reference compound]						shift of isoprenaline Ki of β1AR-84 in response to binding partner, 20° C. (β1AR-84 [2]; relative to uncoupled […]): 9.6 fold
Mini-Gs/q58: mini-Gs with final 19 residues of α5 helix changed to those in Gαq (13 mutations) (protein, Mini-Gs/q58) MGHHHHHHENLYFQGIEKQLQKDKQVYRATHRLLLLGADNSGKSTIVKQMRILHGGSGGSGGTSGIFETKFQVDKVNFHMFDVGGQRDERRKWIQCFNDVTAIIFVVDSSDYNRLQEALNDFKSIWNNRWLRTISVILFLNKQDLLAEKVLAGKSKIEDYFPEFARYTTPEDATPEPGEDPRVTRAKYFIRDEFLRISTASGDGRHYCYPHFTCAVDTENARRIFAAVKDTILQLNLKEYNLV	did not couple					shift in the thermostability of NTSR1 (NTSR1): no significant shift
Mini Gs77 (protein, MINI GS77) MGHHHHHHANKKIEKQLQKDKQVYRATHRLLLLGAGESGKSTIVKQMRILHVNGGGDQDALRSRVLTSGIFETKFQVDKVNFHMFDVGGQRDERRKWIQCFNDVTAIIFVVASSSYNMVIREDNQTNRLQEALNLFKSIWNNRWLRTISVILFLNKQDLLAEKVLAGKSKIEDYFPEFARYTTPEDATPEPGEDPRVTRAKYFIRDEFLRISTASGDGRHYCYPHFTCAVDTENIRRVFNDCRDIIQRMHLRQYELL						shift of isoprenaline Ki of β1AR-84 in response to binding partner, 4° C. (β1AR-84 [2]; relative to uncoupled […]): 21 fold
Mini Gs393 (protein, N-terminal His tag, TEV site; MINI GS393) MGHHHHHHENLYFQGIEKQLQKDKQVYRATHRLLLLGADNSGKSTIVKQMRILHGGSGGSGGTSGIFETKFQVDKVNFHMFDVGGQRDERRKWIQCFNDVTAIIFVVDSSDYNRLQEALNDFKSIWNNRWLRTISVILFLNKQDLLAEKVLAGKSKIEDYFPEFARYTTPEDATPEPGEDPRVTRAKYFIRDEFLRISTASGDGRHYCYPHFTCAVDTENARRIFNDCRDIIQRMHLRQYELL		39.1 ± 0.0 °C	44.9 ± 0.2 °C	47.7 ± 0.2 °C	65.3 ± 0.0 °C	GTP-mediated dissociation of β1AR-84 complexes (β1AR-84 [2]; 0.25 mM GTPγS): completely resistant
Mini-Gs/q57: mini-Gs with five C-terminal residues changed to Gαq (Q390E, E392N, L394V) (protein, Mini-Gs/q57) MGHHHHHHENLYFQGIEKQLQKDKQVYRATHRLLLLGADNSGKSTIVKQMRILHGGSGGSGGTSGIFETKFQVDKVNFHMFDVGGQRDERRKWIQCFNDVTAIIFVVDSSDYNRLQEALNDFKSIWNNRWLRTISVILFLNKQDLLAEKVLAGKSKIEDYFPEFARYTTPEDATPEPGEDPRVTRAKYFIRDEFLRISTASGDGRHYCYPHFTCAVDTENARRIFNDCRDIIQRMHLREYNLV	still observed					
Mini-Gs/i143: mini-Gs with 9 α5 helix mutations changing coupling specificity to Gi1; SEQ ID NO:111 (protein, Mini-Gs/i143) MGHHHHHHENLYFQGIEKQLQKDKQVYRATHRLLLLGADNSGKSTIVKQMRILHGGSGGSGGTSGIFETKFQVDKVNFHMFDVGGQRDERRKWIQCFNDVTAIIFVVDSSDYNRLQEALNDFKSIWNNRWLRTISVILFLNKQDLLAEKVLAGKSKIEDYFPEFARYTTPEDATPEPGEDPRVTRAKYFIRDEFLRISTASGDGRHYCYPHFTCAVDTENARRIFNDVTDIIIKMNLRDCGLF		35.9 ± 0.1 °C	41.1 ± 0.1 °C	44.8 ± 0.0 °C	69.0 ± 0.1 °C	
Mini-Gs/q70: mini-Gs with R380K Q384L R385Q H387N Q390E E392N L394V (protein) GIEKQLQKDKQVYRATHRLLLLGADNSGKSTIVKQMRILHGGSGGSGGTSGIFETKFQVDKVNFHMFDVGGQRDERRKWIQCFNDVTAIIFVVDSSDYNRLQEALNDFKSIWNNRWLRTISVILFLNKQDLLAEKVLAGKSKIEDYFPEFARYTTPEDATPEPGEDPRVTRAKYFIRDEFLRISTASGDGRHYCYPHFTCAVDTENARRIFNDCKDIILQMNLREYNLV	no binding	36.2 ± 0.1 °C	44.2 ± 0.2 °C	47.2 ± 0.3 °C	67.2 ± 0.4 °C	
